Three molecules from article PMC5415106, “Dpb11 may function with RPA and DNA to initiate DNA replication” (PLoS ONE, 2017) can be followed below.

B1: GST-Dpb11-m1,2,3,5,ΔC (natural protein, budding yeast, UniProt P47027 1-615, looked up)
chain: MKPFQGITFCPTAINNEILAKKISKKIIKLGGIFSKDLTRQVNVLVVGSTTNTNKFKFAVKHRFDIIFIDIQAIDDIYQLWLSGENILPDSNTATMTGSTYEMLKILYRRFSFKYLHNFNIFIGRITDTNITSIDSLVRSIKKLGCSSYNYQNFVIKDTSSHNDDDDQGQNGQISIFVTDTLLGARVNAAIEQNIPIVHFKWILDCQKRSALLPYDPYYLLPNIKDLPYDSIGSNSCDCWDKINTTFPTNIDAQSSLQRQQSSSTLTPSLPKTSSLLNKFKPKGEKIWDKAMSLQQHSKTNFSVLGQSPLSINNKQEDLSDNSTLIFKNCAFIIHHIFPGNHRSILTKIVVQNGGKIETSYLSGIYDHSYYIIPSNKALDSFNDLPEIIDDNDGIVTEFFIERCLYYQKLLHPIDLWSKPFLSTIEFQVSSSSKLLHHEFSSSPFLNVTITGFSGVELLHLTEVLNLLEPMGINYVEYLNKSTDILLINLAALPSIPKTHPLWSNEFSDLFTQFCINNNNDDPGDNNRKDFQNNSILENSMKRKIEYIEKFHSIPVVTPAFIFKLLSAASGENNEIFLNNIKWCIICPRGHKDDFKCKIKKPYYTSISSEKKYQN
notes: Dpb11, budding yeast; ΔC = deletion of amino acids 616 to 764 (the C-terminus), so residues up to 615 remain; m1,2,3,5 = K463E, K469E, R538E, K549E in the BRCT4 motif; also called Dpb11-K463E, K469E, R538E,K549E, Δaa616-764; Dpb11-m1,2,3,4,ΔC (as printed once)
B2: Cdc45 (purified, radiolabelled) (natural protein, budding yeast, UniProt Q08032 1-650, looked up)
chain: MYYGISQFSEAYNKILRNSSSHSSCQLVIFVSCLNIDALCATKMLSLLFKKQLVQSQIVPIFGYSELRRHYSQLDDNINSLLLVGFGGVIDLEAFLEIDPQEYVIDTDEKSGEQSFRRDIYVLDAHRPWNLDNIFGSQIIQCFDDGTVDDTLGEQKEAYYKLLELDEESGDDELSGDENDNNGGDDEATDADEVTDEDEEDEDETISNKRGNSSIGPNDLSKRKQRKKQIHEYEGVLEEYYSQGTTVVNSISAQIYSLLSAIGETNLSNLWLNILGTTSLDIAYAQVYNRLYPLLQDEVKRLTPSSRNSVKTPDTLTLNIQPDYYLFLLRHSSLYDSFYYSNYVNAKLSLWNENGKKRLHKMFARMGIPLSTAQETWLYMDHSIKRELGIIFDKNLDRYGLQDIIRDGFVRTLGYRGSISASEFVEALTALLEVGNSTDKDSVKINNDNNDDTDGEEEEDNSAQKLTNLRKRWVSNFWLSWDALDDRKVELLNRGIQLAQDLQRAIFNTGVAILEKKLIKHLRIYRLCVLQDGPDLDLYRNPLTLLRLGNWLIECCAESEDKQLLPMVLASIDENTDTYLVAGLTPRYPRGLDTIHTKKPILNNFSMAFQQITAETDAKVRIDNFESSIIEIRREDLSPFLEKLTLSGLL
notes: Cdc45, budding yeast; The legend says only 'Similar to (A), except Cdc45 was used in place of Sld2T84D'; not shown: PKA tag (inferred from the radiolabelling method), N-terminal, kept

What all share (assay): pull-down; 10 pmol GST-tagged Dpb11 with 32P-labelled protein, no DNA; GST-binding buffer (40 mM Tris-HCl pH 7.5, 100 mM NaCl, 0.1 mM EDTA, 10% glycerol, 0.1% Triton X-100, 1 mM DTT, 0.1 mg/ml BSA), 25°C 1 h; glutathione Sepharose, two washes; SDS-PAGE and phosphorimaging
What all share (details): both partners purified

Experiment [1] deals with B2.
Experiment [2] has as its target T1, Mcm2-7 complex with a PKA tag at the N-terminus of Mcm2 (budding yeast, UniProt P29469 1-868; P24279 1-971; P30665 1-933; P29496 1-775; P53091 1-1017; P38132 …, 32P-phosphate on the PKA tag).
T1 construct: Mcm2, budding yeast; Mcm3, budding yeast; Mcm4, budding yeast; Mcm5, budding yeast; Mcm6, budding yeast; Mcm7, budding yeast (named only within 'Mcm2-7'); not shown: PKA tag, N-terminal, kept; copies: + + + + +

For the next experiment, the target named is T2, GST-Dpb11-wild-type (budding yeast, UniProt P47027 1-764).
T2 construct: Dpb11, budding yeast, full-length; also called Full-length Dpb11; wild-type Dpb11
T2 sequence (looked up): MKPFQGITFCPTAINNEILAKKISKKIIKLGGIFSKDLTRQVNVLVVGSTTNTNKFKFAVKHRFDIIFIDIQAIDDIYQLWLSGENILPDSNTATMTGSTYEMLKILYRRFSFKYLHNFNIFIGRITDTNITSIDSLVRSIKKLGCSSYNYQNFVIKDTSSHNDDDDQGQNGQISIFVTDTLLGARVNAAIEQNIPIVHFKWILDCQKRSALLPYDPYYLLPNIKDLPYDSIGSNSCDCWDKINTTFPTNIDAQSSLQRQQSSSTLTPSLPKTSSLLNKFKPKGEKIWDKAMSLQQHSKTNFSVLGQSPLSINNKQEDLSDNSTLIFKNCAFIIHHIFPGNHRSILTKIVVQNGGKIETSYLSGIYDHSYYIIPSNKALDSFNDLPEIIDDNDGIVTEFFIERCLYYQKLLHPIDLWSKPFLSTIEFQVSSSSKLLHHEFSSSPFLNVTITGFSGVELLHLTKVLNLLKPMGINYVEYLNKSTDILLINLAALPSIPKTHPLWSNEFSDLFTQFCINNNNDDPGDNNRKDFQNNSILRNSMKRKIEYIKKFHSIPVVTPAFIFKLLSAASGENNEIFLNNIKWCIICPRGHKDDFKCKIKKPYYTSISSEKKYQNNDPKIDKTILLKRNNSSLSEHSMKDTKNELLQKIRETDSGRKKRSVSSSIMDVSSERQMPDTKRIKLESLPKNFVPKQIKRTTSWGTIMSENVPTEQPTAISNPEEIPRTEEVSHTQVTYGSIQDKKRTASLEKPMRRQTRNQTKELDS

The experiment “GST-Dpb11-m1,2,3,5,ΔC” concerns the target B1.

Regarding B1, the binding result in experiment [1] and in experiment [2] was “binds” each time. In the case of B2, the binding result with GST-Dpb11-wild-type is listed as “binds”.

B3: PKA-Sld2T84D (natural protein, budding yeast, UniProt P34252 1-453, looked up)
chain: MYSFELDKLKIELKTWEHDFIDKNKREPTRDDIKSLRTVRQMYKQYSTLKKKQSLQRQKVDTQESVELPAHKKDHDEVVEIGPDPQVYGKAISIFDMNLSPIKPIYMTFTNNIDVNNDNSKTISNESSPRKTILLKSSPADRTLVAEPISSVKRQLNFQMLNASSTRTPTSSPCKNRNGKLVEIKKCSPTINPPLESGKPSGYYGPNSPLKLDEENIHLNISLNSSTKRRLQIAYPSLQKTPSKDQADISTSFSPSPLIRRPLTKSLIELAREHTEIVKEFGVLQEEDIEEEEEGEEGENGYDEKNHEDDFGLEDELIRPKVVKDIFQEDDDNDDSQAREDTFIRKRPKRRKVIRRLRDNDPETETAGFERDVHKELVKLKRRKVAEFLGSTSQISDTEFEHDPEASSGVVSSEQKPTAKRKGRKKYNLVSNNFRRLKLPKKNRFSNGRWGRR
modifications: 32P-phosphate on the artificial PKA site
notes: Sld2, budding yeast, with T84D; not shown: PKA site, N-terminal, kept
Regarding B3, the binding result with GST-Dpb11-wild-type and in the experiment with GST-Dpb11-m1,2,3,5,ΔC was “binds” each time.
